{"source": "paper PMC11712212", "about": "(Chemical Science, 2024)", "key": {"DV12 ([…])": {"target": "DV12 ([…]) (Homo sapiens, UniProt P63165)", "experiment": "Biolayer interferometry", "type": "binding"}, "QTGG": {"target": "QTGG (Homo sapiens, UniProt P63165)", "experiment": "Isothermal titration calorimetry", "type": "binding"}, "SUMO-1 protein": {"target": "SUMO-1 protein (UniProt P63165 1-97)", "sequence (P63165 1-97)": "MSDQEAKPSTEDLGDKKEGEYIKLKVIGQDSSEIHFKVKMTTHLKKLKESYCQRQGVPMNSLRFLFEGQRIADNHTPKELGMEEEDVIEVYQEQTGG", "experiment": "BLI"}, "[1]": {"target": "T1, QTGG, short SUMO-1 remnant after trypsin and Glu-C digestion", "T1 sequence (peptide)": "QTGG", "experiment": "ITC"}}, "note": "Bridge positions count the residues as written; N and C are the ends. Ends that are not written are not given here. Peptide text beside a SMILES is read from it."}
{"molecule": "CC(C)C[C@H](NC(=O)[C@@H](N)CCCCN)C(=O)N[C@@H](CCCNC(=N)N)C(=O)N[C@@H](Cc1c[nH]c2ccccc12)C(=O)N[C@H](C(=O)N[C@@H](CC(=O)O)C(=O)N[C@@H](Cc1ccc(O)cc1)C(=O)N[C@@H](C)C(=O)N[C@@H](CCCCN)C(=O)N[C@@H](CCCCN)C(=O)N[C@@H](CCCNC(=N)N)C(=O)N[C@@H](CCCCN)C(=O)O)[C@@H](C)O", "note": "[PEP-4, KLRWTDYAKKRK] (H-KLRWTDYAKKRK-OH)", "values": [{"measurement": "Kd", "setting": "DV12 ([…])", "result": 2, "unit": "nM"}]}
{"molecule": "CC(C)C[C@@H]1NC(=O)[C@H](Cc2c[nH]c3ccccc23)NC(=O)[C@H](CCCCN)NC(=O)[C@H](CCC(=O)O)NC(=O)[C@@H]2CCCN2C(=O)[C@@H](N)CSSC[C@@H](C(=O)O)NC(=O)[C@H]([C@@H](C)O)NC(=O)CNC1=O", "note": "[CP-1, CPEKWLGTC] (HELM PEPTIDE1{C.P.E.K.W.L.G.T.C}$PEPTIDE1,PEPTIDE1,1:R3-9:R3$$$V2.0; N-terminus and C-terminus assumed)", "values": [{"measurement": "Kd", "setting": "QTGG", "result": 71.8, "unit": "nM"}]}
{"molecule": "KLRWTDYAKKRK", "note": "[PEP-4 (KLRWTDYAKKRK)]", "values": [{"measurement": "Kd", "setting": "SUMO-1 protein", "result": 43.7, "unit": "nM"}]}
{"molecule": "CMTPNPTTC (disulfide 1-9)", "note": "[CP-2 (…)]", "values": [{"measurement": "Kd", "setting": "[1]", "result": 1800, "unit": "nM"}]}
{"molecule": "CPEKWLGTC (disulfide 1-9)", "note": "[CP-1 (…), cystine-linked cyclic peptide]", "values": [{"measurement": "Kd", "setting": "[1]", "result": 71.8, "unit": "nM"}]}
